Data on one sequence can be found in PMC9652331.

Common to all, as to assay: EMSA
On the technique in general: A gel shift assay detects complexes by their altered migration in electrophoresis.

In data set [1] the target is WTAP;VIRMA (Homo sapiens;Homo sapiens) (UniProt Q15007+Q69YN4). Particulars: WV; EMSA: 5 nM FAM-RNA, 20 mM HEPES pH 7.5, 100 mM KCl, 10% glycerol, 1 mM DTT, 25 C, 20 min; 8% native PAGE in 1x TBE at 4 C; Kd from loss of free RNA, Hill fit ….
Data set [2] concerns the target WTAP;VIRMA;ZC3H13 (1106-1668) (Homo sapiens;Homo sapiens;Homo sapiens) (UniProt Q15007+Q69YN4+Q5T200). The note with it: WVZ (no HAKAI); EMSA: 5 nM FAM-RNA, 20 mM HEPES pH 7.5, 100 mM KCl, 10% glycerol, 1 mM DTT, 25 C, 20 min; 8% native PAGE in 1x TBE at 4 C; Kd from loss of free RNA, Hill fit ….
Data set [3] deals with HAKAI;WTAP;VIRMA;ZC3H13 (1106-1668) (Homo sapiens;Homo sapiens;Homo sapiens;Homo sapiens) (UniProt Q75N03+Q15007+Q69YN4+Q5T200). Particulars: HWVZ; EMSA: 5 nM FAM-RNA, 20 mM HEPES pH 7.5, 100 mM KCl, 10% glycerol, 1 mM DTT, 25 C, 20 min; 8% native PAGE in 1x TBE at 4 C; Kd from loss of free RNA, Hill fit ….
Data set [4] has as its target HAKAI;WTAP;VIRMA (Homo sapiens;Homo sapiens;Homo sapiens) (UniProt Q75N03+Q15007+Q69YN4). The note with it: HWV (no ZC3H13); EMSA: 5 nM FAM-RNA, 20 mM HEPES pH 7.5, 100 mM KCl, 10% glycerol, 1 mM DTT, 25 C, 20 min; 8% native PAGE in 1x TBE at 4 C; Kd from loss of free RNA, Hill fit ….

Chain of WTAP;VIRMA;ZC3H13 (1106-1668) (Homo sapiens;Homo sapiens;Homo sapiens) (Q15007 whole entry, chain 1 of 3): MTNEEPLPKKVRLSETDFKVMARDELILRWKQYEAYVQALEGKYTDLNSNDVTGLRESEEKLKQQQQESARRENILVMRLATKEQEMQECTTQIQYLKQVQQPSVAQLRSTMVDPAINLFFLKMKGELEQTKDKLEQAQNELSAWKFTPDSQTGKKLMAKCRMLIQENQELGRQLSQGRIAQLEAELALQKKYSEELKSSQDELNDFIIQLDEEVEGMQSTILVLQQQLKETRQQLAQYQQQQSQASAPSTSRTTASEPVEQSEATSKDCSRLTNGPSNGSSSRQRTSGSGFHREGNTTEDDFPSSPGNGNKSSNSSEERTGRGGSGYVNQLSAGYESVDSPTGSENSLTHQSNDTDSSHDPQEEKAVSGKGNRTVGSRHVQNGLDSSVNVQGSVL
Chain of WTAP;VIRMA;ZC3H13 (1106-1668) (Homo sapiens;Homo sapiens;Homo sapiens) (Q69YN4 whole entry, chain 2 of 3): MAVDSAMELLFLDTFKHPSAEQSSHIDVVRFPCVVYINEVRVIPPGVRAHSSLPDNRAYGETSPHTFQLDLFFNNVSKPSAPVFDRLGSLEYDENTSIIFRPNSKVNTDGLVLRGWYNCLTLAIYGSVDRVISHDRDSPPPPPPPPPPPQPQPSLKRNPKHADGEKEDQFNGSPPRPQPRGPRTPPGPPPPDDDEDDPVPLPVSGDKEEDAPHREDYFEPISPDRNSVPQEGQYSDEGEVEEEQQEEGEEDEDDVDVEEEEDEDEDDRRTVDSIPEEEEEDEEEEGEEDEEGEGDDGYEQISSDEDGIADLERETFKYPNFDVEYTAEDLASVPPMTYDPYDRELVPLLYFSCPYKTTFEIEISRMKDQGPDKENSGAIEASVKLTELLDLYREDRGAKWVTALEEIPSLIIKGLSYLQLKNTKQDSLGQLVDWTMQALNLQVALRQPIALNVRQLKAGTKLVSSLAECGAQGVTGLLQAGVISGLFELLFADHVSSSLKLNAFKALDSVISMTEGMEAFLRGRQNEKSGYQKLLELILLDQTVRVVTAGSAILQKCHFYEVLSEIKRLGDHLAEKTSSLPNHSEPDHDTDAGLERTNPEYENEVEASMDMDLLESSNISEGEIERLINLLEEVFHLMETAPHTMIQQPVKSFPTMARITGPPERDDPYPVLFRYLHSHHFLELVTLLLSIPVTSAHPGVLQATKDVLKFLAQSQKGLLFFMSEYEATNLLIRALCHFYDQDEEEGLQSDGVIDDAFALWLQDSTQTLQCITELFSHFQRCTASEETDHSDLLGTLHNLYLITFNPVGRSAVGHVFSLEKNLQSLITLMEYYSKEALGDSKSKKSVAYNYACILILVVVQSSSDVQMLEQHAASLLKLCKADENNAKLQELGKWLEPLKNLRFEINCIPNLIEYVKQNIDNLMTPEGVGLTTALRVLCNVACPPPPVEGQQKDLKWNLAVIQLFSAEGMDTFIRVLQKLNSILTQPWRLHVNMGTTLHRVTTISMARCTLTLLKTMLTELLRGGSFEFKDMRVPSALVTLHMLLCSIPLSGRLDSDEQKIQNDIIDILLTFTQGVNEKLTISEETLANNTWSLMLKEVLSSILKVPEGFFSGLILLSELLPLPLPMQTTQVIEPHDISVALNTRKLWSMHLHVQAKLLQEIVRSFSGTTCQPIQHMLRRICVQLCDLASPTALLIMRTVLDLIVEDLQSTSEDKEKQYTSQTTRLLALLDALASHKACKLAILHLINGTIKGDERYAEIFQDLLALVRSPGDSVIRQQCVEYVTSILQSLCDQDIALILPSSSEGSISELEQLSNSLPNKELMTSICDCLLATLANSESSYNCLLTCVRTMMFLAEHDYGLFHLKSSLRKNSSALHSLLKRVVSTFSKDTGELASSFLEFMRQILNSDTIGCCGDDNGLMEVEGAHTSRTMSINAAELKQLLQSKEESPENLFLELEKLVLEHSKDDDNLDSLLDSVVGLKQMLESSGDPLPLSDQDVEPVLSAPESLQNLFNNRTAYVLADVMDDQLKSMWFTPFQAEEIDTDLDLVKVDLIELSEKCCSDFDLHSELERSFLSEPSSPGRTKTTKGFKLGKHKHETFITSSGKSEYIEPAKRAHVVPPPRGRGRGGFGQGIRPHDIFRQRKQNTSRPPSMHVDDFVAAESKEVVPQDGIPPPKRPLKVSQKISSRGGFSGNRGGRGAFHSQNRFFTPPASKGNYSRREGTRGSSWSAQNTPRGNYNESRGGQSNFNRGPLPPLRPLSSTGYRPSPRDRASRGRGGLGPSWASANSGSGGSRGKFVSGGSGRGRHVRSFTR
Chain of WTAP;VIRMA;ZC3H13 (1106-1668) (Homo sapiens;Homo sapiens;Homo sapiens) (Q5T200 1106-1668, chain 3 of 3): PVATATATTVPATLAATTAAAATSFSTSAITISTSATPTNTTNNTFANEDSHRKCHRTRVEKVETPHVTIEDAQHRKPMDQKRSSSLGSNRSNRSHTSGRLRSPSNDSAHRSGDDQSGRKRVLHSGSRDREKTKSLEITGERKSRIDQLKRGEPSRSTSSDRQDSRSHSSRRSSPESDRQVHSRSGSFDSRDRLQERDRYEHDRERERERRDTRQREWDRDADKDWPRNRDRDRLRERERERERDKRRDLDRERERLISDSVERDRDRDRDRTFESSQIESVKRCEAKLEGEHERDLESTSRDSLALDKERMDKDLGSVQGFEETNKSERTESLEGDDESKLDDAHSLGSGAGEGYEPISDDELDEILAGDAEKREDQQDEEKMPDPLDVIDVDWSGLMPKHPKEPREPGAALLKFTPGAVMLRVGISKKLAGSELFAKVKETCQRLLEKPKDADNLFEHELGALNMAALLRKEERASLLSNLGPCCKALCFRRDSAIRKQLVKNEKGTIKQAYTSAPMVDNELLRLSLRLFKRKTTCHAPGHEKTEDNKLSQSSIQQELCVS
Chain of WTAP;VIRMA (Homo sapiens;Homo sapiens) (Q15007 whole entry, chain 1 of 2): as the sequence (Q15007 whole entry, chain 1 of 3) above
Chain of WTAP;VIRMA (Homo sapiens;Homo sapiens) (Q69YN4 whole entry, chain 2 of 2): as the sequence (Q69YN4 whole entry, chain 2 of 3) above
Chain of HAKAI;WTAP;VIRMA;ZC3H13 (1106-1668) (Homo sapiens;Homo sapiens;Homo sapiens;Homo sapiens) (Q75N03 whole entry, chain 1 of 4): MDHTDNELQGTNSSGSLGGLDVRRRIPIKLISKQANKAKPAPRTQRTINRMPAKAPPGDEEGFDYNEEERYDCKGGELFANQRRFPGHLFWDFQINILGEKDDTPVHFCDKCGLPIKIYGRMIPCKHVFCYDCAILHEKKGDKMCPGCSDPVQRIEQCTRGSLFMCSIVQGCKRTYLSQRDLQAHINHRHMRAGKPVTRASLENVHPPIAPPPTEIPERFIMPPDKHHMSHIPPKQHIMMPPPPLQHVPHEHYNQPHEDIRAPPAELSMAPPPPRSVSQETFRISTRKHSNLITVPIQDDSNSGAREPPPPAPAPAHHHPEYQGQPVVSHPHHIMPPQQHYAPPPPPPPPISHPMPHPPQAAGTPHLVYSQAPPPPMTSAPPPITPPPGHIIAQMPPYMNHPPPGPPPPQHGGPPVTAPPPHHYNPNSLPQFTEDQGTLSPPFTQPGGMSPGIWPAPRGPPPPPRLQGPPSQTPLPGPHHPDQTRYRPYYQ
Chain of HAKAI;WTAP;VIRMA;ZC3H13 (1106-1668) (Homo sapiens;Homo sapiens;Homo sapiens;Homo sapiens) (Q15007 whole entry, chain 2 of 4): as the sequence (Q15007 whole entry, chain 1 of 3) above
Chain of HAKAI;WTAP;VIRMA;ZC3H13 (1106-1668) (Homo sapiens;Homo sapiens;Homo sapiens;Homo sapiens) (Q69YN4 whole entry, chain 3 of 4): as the sequence (Q69YN4 whole entry, chain 2 of 3) above
Chain of HAKAI;WTAP;VIRMA;ZC3H13 (1106-1668) (Homo sapiens;Homo sapiens;Homo sapiens;Homo sapiens) (Q5T200 1106-1668, chain 4 of 4): as the sequence (Q5T200 1106-1668, chain 3 of 3) above
Chain of HAKAI;WTAP;VIRMA (Homo sapiens;Homo sapiens;Homo sapiens) (Q75N03 whole entry, chain 1 of 3): as the sequence (Q75N03 whole entry, chain 1 of 4) above
Chain of HAKAI;WTAP;VIRMA (Homo sapiens;Homo sapiens;Homo sapiens) (Q15007 whole entry, chain 2 of 3): as the sequence (Q15007 whole entry, chain 1 of 3) above
Chain of HAKAI;WTAP;VIRMA (Homo sapiens;Homo sapiens;Homo sapiens) (Q69YN4 whole entry, chain 3 of 3): as the sequence (Q69YN4 whole entry, chain 2 of 3) above

Broadly, the Kd is the concentration at which binding is half-saturated. A lower Kd goes with higher affinity. On to “GGCCCCUCCAUCGUCCACCGCAAAUGCUUCUAGGCGGACUAUGACUUAGUUGCGUUACACCCUUUCUUGACAAAACCUAACUUGCACAGAAAACA [ACTB-1 RNA]”, for which the Kd was found to be 826 nM in data set [1], 256 nM in data set [2], 214 nM in data set [3] and 563 nM in data set [4].
